Reference: article PMC12612047 (Nature Communications, 2025)

How the values were obtained:
[1] = molecular target: T1, purified, catalytically inactive CNA/B containing CNA_(Trunc+H151Q) (UniProt Q08209 1-391; P63098 1-170, H151Q); assay: NMR titration
[2] = molecular target: T1, purified, catalytically inactive CNA/B …; assay: fluorescence polarisation
Target sequence in this assay (Q08209 1-391 H151Q, chain 1 of 2): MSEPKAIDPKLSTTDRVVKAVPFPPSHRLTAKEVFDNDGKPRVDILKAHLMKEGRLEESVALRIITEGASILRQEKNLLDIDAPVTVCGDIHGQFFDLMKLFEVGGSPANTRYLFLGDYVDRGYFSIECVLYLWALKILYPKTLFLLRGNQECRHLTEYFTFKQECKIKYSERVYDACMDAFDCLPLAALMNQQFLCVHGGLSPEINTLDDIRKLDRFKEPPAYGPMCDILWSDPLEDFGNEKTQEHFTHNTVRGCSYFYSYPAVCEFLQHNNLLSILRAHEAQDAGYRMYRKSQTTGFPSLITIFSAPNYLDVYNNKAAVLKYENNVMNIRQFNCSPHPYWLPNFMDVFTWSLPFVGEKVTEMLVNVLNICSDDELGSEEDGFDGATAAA
Target sequence in this assay (P63098 whole entry, chain 2 of 2): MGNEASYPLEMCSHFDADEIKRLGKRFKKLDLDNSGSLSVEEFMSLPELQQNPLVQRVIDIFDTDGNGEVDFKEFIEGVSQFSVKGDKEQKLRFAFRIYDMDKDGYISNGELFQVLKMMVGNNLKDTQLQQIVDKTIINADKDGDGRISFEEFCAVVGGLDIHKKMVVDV

binding result [1]	binding result [2]	Binder
binds	–	full-length CLMB (76 residues) expressed in E. coli (natural protein, uniformly ^15N-labeled in the NMR titrations; not phosphorylated) MGLKMSCLKGFQMCVSSSSSSHDEAPVLNDKHLDVPDIIITPPTPTGMMLPRDLGSTVWLDETGSCPDDGEIDPEA
–	binds	SHDEAPVLNDKHLDVPDIIITPPTPTGMML [CLMBWT peptide (residues 21-50), not phosphorylated, unlabeled]
–	binds	SHDEAPVLNDKHADAPDIIITPPTPTGMML (phosphothreonine at 44) [pCLMB_(LxVMut) peptide (residues 21-50, pThr44), unlabeled]
